Measurements reported in publication PMC8421139 (Nucleic Acids Research, 2021).

Target: Flag-DHX9 recombinant protein (UniProt Q08211 1-1270)
Test: pull-down

Chain of Flag-DHX9 recombinant protein (Q08211 whole entry): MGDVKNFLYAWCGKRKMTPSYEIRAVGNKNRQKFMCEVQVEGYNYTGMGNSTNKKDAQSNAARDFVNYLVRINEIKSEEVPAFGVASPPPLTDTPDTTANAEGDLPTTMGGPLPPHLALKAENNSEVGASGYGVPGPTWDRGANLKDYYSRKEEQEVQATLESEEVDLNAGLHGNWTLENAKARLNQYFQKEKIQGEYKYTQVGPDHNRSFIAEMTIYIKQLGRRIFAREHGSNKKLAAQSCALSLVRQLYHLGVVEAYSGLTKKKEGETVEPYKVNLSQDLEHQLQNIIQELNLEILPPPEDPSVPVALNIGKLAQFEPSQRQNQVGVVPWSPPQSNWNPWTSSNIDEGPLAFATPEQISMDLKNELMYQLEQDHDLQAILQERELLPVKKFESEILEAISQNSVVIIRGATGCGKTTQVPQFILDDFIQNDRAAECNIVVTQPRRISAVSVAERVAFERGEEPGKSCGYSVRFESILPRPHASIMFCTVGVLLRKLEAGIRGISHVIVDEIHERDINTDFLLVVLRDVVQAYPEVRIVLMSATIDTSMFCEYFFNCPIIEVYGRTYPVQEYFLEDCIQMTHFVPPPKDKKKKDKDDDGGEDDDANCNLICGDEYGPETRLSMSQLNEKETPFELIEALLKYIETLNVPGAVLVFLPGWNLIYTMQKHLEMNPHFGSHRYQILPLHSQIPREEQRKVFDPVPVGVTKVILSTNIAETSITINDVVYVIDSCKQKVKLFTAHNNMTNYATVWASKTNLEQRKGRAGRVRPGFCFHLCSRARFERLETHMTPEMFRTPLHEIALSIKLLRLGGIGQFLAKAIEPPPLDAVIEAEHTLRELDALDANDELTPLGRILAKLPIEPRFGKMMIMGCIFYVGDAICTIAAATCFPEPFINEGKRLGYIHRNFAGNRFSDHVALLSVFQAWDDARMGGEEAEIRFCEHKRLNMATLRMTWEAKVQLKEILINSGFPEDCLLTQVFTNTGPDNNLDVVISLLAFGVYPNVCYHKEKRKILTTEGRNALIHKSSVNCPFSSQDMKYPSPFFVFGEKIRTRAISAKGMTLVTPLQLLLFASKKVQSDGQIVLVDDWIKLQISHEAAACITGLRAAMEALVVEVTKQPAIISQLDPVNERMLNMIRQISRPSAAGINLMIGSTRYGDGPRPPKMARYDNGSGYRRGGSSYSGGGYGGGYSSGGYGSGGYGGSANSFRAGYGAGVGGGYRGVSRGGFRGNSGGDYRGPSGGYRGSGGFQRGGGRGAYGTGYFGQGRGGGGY

B1: GST-TDRD3 (natural protein)
chain: MAQVAGAALSQAGWYLSDEGIEACTSSPDKVNVNDIILIALNTDLRTIGKKFLPSDINSGKVEKLEGPCVLQIQKIRNVAAPKDNEESQAAPRMLRLQMTDGHISCTAVEFSYMSKISLNTPPGTKVKLSGIVDIKNGFLLLNDSNTTVLGGEVEHLIEKWELQRSLSKHNRSNIGTEGGPPPFVPFGQKCVSHVQVDSRELDRRKTLQVTMPVKPTNDNDEFEKQRTAAIAEVAKSKETKTFGGGGGGARSNLNMNAAGNRNREVLQKEKSTKSEGKHEGVYRELVDEKALKHITEMGFSKEASRQALMDNGNNLEAALNVLLTSNKQKPVMGPPLRGRGKGRGRIRSEDEEDLGNARPSAPSTLFDFLESKMGTLNVEEPKSQPQQLHQGQYRSSNTEQNGVKDNNHLRHPPRNDTRQPRNEKPPRFQRDSQNSKSVLEGSGLPRNRGSERPSTSSVSEVWAEDRIKCDRPYSRYDRTKDTSYPLGSQHSDGAFKKRDNSMQSRSGKGPSFAEAKENPLPQGSVDYNNQKRGKRESQTSIPDYFYDRKSQTINNEAFSGIKIEKHFNVNTDYQNPVRSNSFIGVPNGEVEMPLKGRRIGPIKPAGPVTAVPCDDKIFYNSGPKRRSGPIKPEKILESSIPMEYAKMWKPGDECFALYWEDNKFYRAEVEALHSSGMTAVVKFIDYGNYEEVLLSNIKPIQTEAWEEEGTYDQTLEFRRGGDGQPRRSTRPTQQFYQPPRARN
binding result: binds
